± gives the standard deviation of the averaged measurements.
Test system: ATP
Test: switch fluorescence ratio, 500 uM ATP over buffer (Cy3 cluster intensity, sum of 5 cycles each) (fold (ratio)); higher = stronger signal-on switching upon ATP binding; sequences stand for … in TCGTCGGCAGCGTCAGATGTGTATAAGAGACAGTTTTTTTTTTTTTTTTTTTTTTTTT…TC
Conditions: aptamer strand: ATP DNA aptamer (quencher-CACCTGGGGGAGTATTGCGGAGGAAGG + anchor), 100 nM annealed; ATP concentration: 500 uM
How it was run: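 Per cluster, summed Cy3 intensity from the target cycles was divided by that from the buffer cycles to give the fluorescence ratio, then averaged per switch-domain sequence. Clusters outside 100-1000 RFU were excluded. The Cy3-labelled switching-strand clusters, on a modified Illumina MiSeq flow-cell, were annealed to 100 nM quencher-labelled ATP aptamer and imaged in selection buffer, then after 15 min with 500 uM ATP at 22 °C, for five cycles with NaOH stripping and re-annealing between them.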
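Further: ATP exposure 15 min at 22 °C before imaging.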

Sequence | switch fluorescence ratio
GATAGGGCAA | 1.08 ± 0.075
GATAGGGCTT | 0.994 ± 0.056
GATAGGGTAC | 1.0351 ± 0.0001
GATAGGTGCC | 1.002 ± 0.0027
GATAGGTTGG | 0.985 ± 0.066
GATAGTTCGC | 1.01 ± 0.015
GATATATATC | 0.9903 ± 0.0054
GATATATGCA | 0.997 ± 0.028
GATATATGGT | 0.9833 ± 0.0077
GATATGGCAC | 1.05 ± 0.042
GATATGTGTT | 1.001 ± 0.0024
GATATGTTCC | 1.13 ± 0.084
GATATGTTTT | 1 ± 0.035
GATATTATGA | 1.01 ± 0.01
GATATTCCTG | 1 ± 0.03
GATATTGGTT | 1.02 ± 0.025
GATATTTGGA | 0.996 ± 0.041
GATATTTTA | 0.9929 ± 0.0069
GATCAGCCCG | 1.016 ± 0.005
GATCAGGGGT | 1.06 ± 0.044
GATCAGGTCT | 0.987 ± 0.032
GATCAGTGTT | 0.9783 ± 0.0093
GATCATAAAA | 1.02 ± 0.017

Sequence | switch fluorescence ratio
GATCATAGGG | 1.01 ± 0.018
GATCATCCTG | 1.008 ± 0.0065
GATCCAATGT | 0.993 ± 0.019
GATCCATGCT | 0.9536 ± 0.0019
GATCCGCTGG | 1.11 ± 0.012
GATCCGGGGG | 0.988 ± 0.043
GATCCTGGGG | 0.974 ± 0.054
GATCGAAACT | 1.01 ± 0.081
GATCGAGACC | 1.024 ± 0.0044
GATCGGATGT | 0.981 ± 0.011
GATCGGGGGG | 0.983 ± 0.041
GATCGGGGTG | 0.965 ± 0.021
GATCGGTGCT | 1 ± 0.015
GATCGTACTT | 1.08 ± 0.015
GATCGTTGTC | 0.988 ± 0.027
GATCGTTTTA | 1 ± 0.022
GATCTAAAAG | 1.03 ± 0.017
GATCTAGGAG | 1.02 ± 0.017
GATCTGGACA | 1.01 ± 0.032
GATCTTCGTT | 1.01 ± 0.041
GATCTTGTTT | 0.976 ± 0.018
GATCTTTCAT | 1 ± 0.018
GATCTTTTTT | 1.02 ± 0.023

Sequence | switch fluorescence ratio
GATGAAAAAA | 1.02 ± 0.037
GATGAAAGGC | 1.046 ± 0.0017
GATGAAAGGT | 1.002 ± 0.0047
GATGAAATGT | 0.994 ± 0.015
GATGAATGAC | 1.02 ± 0.016
GATGAATGTC | 1.04 ± 0.13
GATGAATTGC | 1.01 ± 0.033
GATGACAGGG | 1.01 ± 0.12
GATGAGCCGG | 1 ± 0.027
GATGAGGATG | 0.987 ± 0.014
GATGAGGGGT | 0.986 ± 0.038
GATGATGATG | 1.014 ± 0.0022
GATGATGCTG | 1.03 ± 0.017
GATGATGTAT | 1.01 ± 0.033
GATGATTGGT | 0.998 ± 0.015
GATGATTTTA | 1.02 ± 0.042
GATGCGGTG | 1 ± 0.012
GATGCGGTTA | 0.988 ± 0.031
GATGCGGTTT | 0.994 ± 0.019
GATGCTCCTT | 1.05 ± 0.031
GATGCTCGAG | 1 ± 0.016
GATGCTGGCG | 1.01 ± 0.052
GATGGACCTT | 1.08 ± 0.11

Sequence | switch fluorescence ratio
GATGGAGTGT | 0.978 ± 0.018
GATGGAGTTG | 1.013 ± 0.0053
GATGGCCCTT | 0.99064 ± 0.00065
GATGGCTGTG | 1.021 ± 0.01
GATGGGAGGA | 0.9639 ± 0.005
GATGGGAGTG | 1 ± 0.029
GATGGGATTG | 0.966 ± 0.037
GATGGGCTCG | 0.988 ± 0.025
GATGGGGATG | 0.9677 ± 0.0045
GATGGGGATT | 1.04 ± 0.069
GATGGGGCGC | 0.975 ± 0.069
GATGGGGCGT | 0.989 ± 0.055
GATGGGGTCC | 0.949 ± 0.015
GATGGGGTGG | 1 ± 0.016
GATGGGTACG | 1.02 ± 0.042
GATGGGTCGT | 1 ± 0.033
GATGGGTCTG | 0.948 ± 0.014
GATGGGTTCT | 0.9926 ± 0.0044
GATGGGTTGA | 1.06 ± 0.03
GATGGGTTGG | 0.9899 ± 0.008
GATGGTAGCT | 1.04 ± 0.074
GATGGTATGG | 1.007 ± 0.0052
GATGGTGAGA | 1.02 ± 0.065

Sequence | switch fluorescence ratio
GATGGTTAAC | 1.01 ± 0.0045
GATGGTTGTG | 0.95 ± 0.037
GATGTACAGT | 1.035 ± 0.0072
GATGTAGGAA | 1.013 ± 0.0065
GATGTATGTA | 0.973 ± 0.021
GATGTATTCG | 1.001 ± 0.0089
GATGTCAAGA | 1.01 ± 0.023
GATGTCCCGG | 0.987 ± 0.022
GATGTCGTGC | 1.03 ± 0.031
GATGTGAGCC | 1.01 ± 0.018
GATGTTAATA | 0.985 ± 0.085
GATGTTAGTG | 1.003 ± 0.008
GATGTTCAGG | 0.9875 ± 0.0011
GATGTTGTAT | 1.01 ± 0.021
GATGTTGTGG | 0.9751 ± 0.0029
GATGTTTAAT | 0.991 ± 0.029
GATGTTTGCG | 0.994 ± 0.034
GATGTTTTAC | 0.998 ± 0.025
GATTAAAGTC | 1.03 ± 0.034
GATTAACGGT | 1.012 ± 0.0084
GATTAAGGT | 0.992 ± 0.014
GATTACAGTG | 1.02 ± 0.047
GATTACGGGA | 1.052 ± 0.0098

Sequence | switch fluorescence ratio
GATTAGAAGT | 0.996 ± 0.016
GATTAGGCAT | 0.996 ± 0.039
GATTAGGTGA | 1.06 ± 0.014
GATTATAGTA | 0.952 ± 0.027
GATTATCATT | 0.9669 ± 0.0093
GATTATTCTG | 0.966 ± 0.039
GATTATTTGA | 0.992 ± 0.061
GATTCACGGT | 1.01 ± 0.02
GATTCACGTT | 1.052 ± 0.0043
GATTCAGCGG | 0.97 ± 0.015
GATTCAGGAA | 1 ± 0.047
GATTCAGGTA | 1.01 ± 0.026
GATTCCAGTT | 1.01 ± 0.032
GATTCGTGAC | 1.03 ± 0.052
GATTCTCTAT | 1.008 ± 0.0033
GATTCTTGTT | 1.02 ± 0.046
GATTGAATGG | 0.985 ± 0.055
GATTGAATTT | 0.989 ± 0.032
GATTGAGGAA | 0.9864 ± 0.0061
GATTGATGGT | 0.992 ± 0.021
GATTGCAGCG | 1.002 ± 0.0016
GATTGCCTGT | 0.981 ± 0.029
GATTGCGAGA | 1.01 ± 0.036

Sequence | switch fluorescence ratio
GATTGCGGGC | 1.03 ± 0.011
GATTGGAGGG | 0.997 ± 0.026
GATTGGCACC | 0.965 ± 0.014
GATTGGCAGC | 1.015 ± 0.0035
GATTGGGGGC | 1.04 ± 0.12
GATTGGGTTC | 0.9685 ± 0.0036
GATTGGTTGT | 1.01 ± 0.022
GATTGTAAAG | 1.021 ± 0.01
GATTGTGACG | 1.06 ± 0.057
GATTGTGCCG | 1.03 ± 0.061
GATTGTTAGA | 0.9891 ± 0.0081
GATTGTTCGT | 1.031 ± 0.0085
GATTTAACGG | 1.01 ± 0.038
GATTTAAGTT | 0.9988 ± 0.0098
GATTTACGAT | 1.026 ± 0.0019
GATTTAGGTG | 1.12 ± 0.0065
GATTTCCCCG | 1.18 ± 0.028
GATTTCCTGG | 1.01 ± 0.02
GATTTGAATT | 0.977 ± 0.025

— the supplement of paper PMC10126150
